According to article PMC10936776, “Structural and functional characterization of AfsR, an SARP family transcriptional activator of antibiotic biosynthesis in Streptomyces” (PLOS Biology, 2024):
Changes are numbered by the printed parent chain. Blank lines part the entries; values can stand above or below the binder they belong to.

Assays:
[1] = molecular target: SARP domain of Streptomyces coelicolor AfsR (residues 1 to 270) (S. coelicolor) (UniProt P25941); assay: cryo-EM structure; SARP-TIC: 32 uM SARP preincubated with 5 uM afsS promoter DNA scaffold, mixed with 4 uM RNAP core, 16 uM σ^HrdB, 16 uM CarD, 32 uM RbpA; 25°C; 20 mM Tris-HCl pH 8.0, 50 mM KCl, 5 mM MgCl2, 3 mM DTT; Superose 6; nominal resolution 3.35 Å, SARP region 3.77 Å
[2] = molecular target: T1, Streptomyces coelicolor RNA polymerase β′ subunit (S. coelicolor, UniProt Q8CJT1 1-1299); assay: as above; settings: both partners purified
T1 construct: RNA polymerase subunit beta', S. coelicolor; Stood in the assay as a subunit of the RNAP core in the holoenzyme; also called RNAP β′; β′ ZBD; source: S. coelicolor RNAP purified as described previously [37]

[3] = molecular target: T2, Streptomyces coelicolor RNA polymerase α subunit (S. coelicolor, UniProt P60312 1-340); assay: as above; settings: both partners purified
T2 construct: RNA polymerase subunit alpha, S. coelicolor; Stood in the assay as a subunit of the RNAP core in the holoenzyme; density for one αCTD is seen; also called αCTD (C-terminal domain of the α subunit); source: S. coelicolor RNAP purified as described previously [37]
T2 sequence: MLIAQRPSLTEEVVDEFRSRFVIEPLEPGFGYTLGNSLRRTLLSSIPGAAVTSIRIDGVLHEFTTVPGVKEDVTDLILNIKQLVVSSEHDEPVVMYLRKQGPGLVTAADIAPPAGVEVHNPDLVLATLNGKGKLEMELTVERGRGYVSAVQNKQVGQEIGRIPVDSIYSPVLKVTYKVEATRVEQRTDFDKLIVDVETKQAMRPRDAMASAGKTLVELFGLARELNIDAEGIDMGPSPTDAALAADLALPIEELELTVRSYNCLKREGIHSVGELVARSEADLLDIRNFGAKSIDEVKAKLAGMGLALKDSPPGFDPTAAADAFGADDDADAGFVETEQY

[4] = molecular target: T3, Streptomyces coelicolor RNA polymerase β subunit (S. coelicolor, UniProt Q9L0L0 1-1161); assay: as above; settings: both partners purified
T3 construct: RNA polymerase subunit beta, S. coelicolor; Stood in the assay as a subunit of the RNAP core in the holoenzyme; also called RNAP β; β flap; source: S. coelicolor RNAP purified as described previously [37]

[5] = molecular target: T4, Streptomyces coelicolor RNA polymerase sigma factor σ^HrdB (S. coelicolor, UniProt P18183 1-511); assay: as above; settings: both partners purified
T4 construct: principal sigma factor HrdB, S. coelicolor; region 1.1 disordered in the map; Stood in the assay as part of the RNAP σ^HrdB-holoenzyme; also called σ subunit; σ R4 (region 4); source: purified as described previously [37]
T4 sequence: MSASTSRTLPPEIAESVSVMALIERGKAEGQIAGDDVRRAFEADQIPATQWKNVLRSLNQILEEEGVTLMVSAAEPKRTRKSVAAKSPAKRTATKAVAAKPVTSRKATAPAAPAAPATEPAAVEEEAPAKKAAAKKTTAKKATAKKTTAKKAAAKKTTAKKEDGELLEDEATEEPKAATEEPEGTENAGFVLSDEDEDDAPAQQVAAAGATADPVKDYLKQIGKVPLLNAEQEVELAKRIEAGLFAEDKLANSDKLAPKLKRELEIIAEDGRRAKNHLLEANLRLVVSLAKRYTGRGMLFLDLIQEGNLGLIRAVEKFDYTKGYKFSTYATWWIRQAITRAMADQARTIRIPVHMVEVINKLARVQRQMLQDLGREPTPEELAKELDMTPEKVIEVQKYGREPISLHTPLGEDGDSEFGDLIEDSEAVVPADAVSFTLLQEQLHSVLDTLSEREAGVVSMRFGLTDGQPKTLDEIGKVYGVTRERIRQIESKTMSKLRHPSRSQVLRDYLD

AfsR, dephosphorylated = molecular target: T5, AfsR, dephosphorylated (Streptomyces coelicolor M145, UniProt P25941 1-993); assay: fluorescence polarization; preincubated with ATP; DNA binding unchanged; FP: 20 mM HEPES pH 7.5, 100 mM NaCl, 5 mM MgCl2, 2 mM DTT, 5% glycerol, 0.1 ug/ml poly(dI-dC), 10 nM DNA, 30 C, 20 min; settings: protein: recombinant; tags: pET28a His tag (Ni-NTA); chain copies: 2; label: 5'-FAM; blunt
T5 sequence: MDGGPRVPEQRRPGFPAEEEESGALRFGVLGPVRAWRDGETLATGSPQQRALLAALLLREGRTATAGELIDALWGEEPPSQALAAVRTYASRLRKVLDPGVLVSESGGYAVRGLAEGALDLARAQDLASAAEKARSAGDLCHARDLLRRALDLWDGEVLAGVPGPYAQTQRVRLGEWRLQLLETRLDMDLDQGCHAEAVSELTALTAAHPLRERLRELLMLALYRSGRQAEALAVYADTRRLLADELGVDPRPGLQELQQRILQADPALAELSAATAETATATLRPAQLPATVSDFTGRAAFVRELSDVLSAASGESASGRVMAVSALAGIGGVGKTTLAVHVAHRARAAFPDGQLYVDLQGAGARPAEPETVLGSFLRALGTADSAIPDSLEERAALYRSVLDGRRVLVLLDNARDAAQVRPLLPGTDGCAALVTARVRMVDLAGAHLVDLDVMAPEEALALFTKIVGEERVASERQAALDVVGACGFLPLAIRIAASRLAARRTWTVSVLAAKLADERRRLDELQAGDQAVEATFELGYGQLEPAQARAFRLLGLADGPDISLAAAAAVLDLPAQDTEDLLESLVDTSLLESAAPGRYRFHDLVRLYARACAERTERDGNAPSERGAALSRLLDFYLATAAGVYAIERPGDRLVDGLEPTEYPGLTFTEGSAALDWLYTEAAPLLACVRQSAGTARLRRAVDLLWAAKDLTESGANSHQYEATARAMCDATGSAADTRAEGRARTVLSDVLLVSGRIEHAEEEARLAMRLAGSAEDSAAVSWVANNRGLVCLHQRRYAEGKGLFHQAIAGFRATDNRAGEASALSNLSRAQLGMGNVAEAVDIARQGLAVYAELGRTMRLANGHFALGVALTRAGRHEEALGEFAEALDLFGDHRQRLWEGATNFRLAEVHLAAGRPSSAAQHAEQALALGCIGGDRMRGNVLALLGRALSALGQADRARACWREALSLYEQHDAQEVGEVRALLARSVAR

AfsR SARP domain = molecular target: T6, AfsR SARP domain (Streptomyces coelicolor M145, UniProt P25941 1-270); assay: fluorescence polarization; 5 mM Mg2+; poly(dI-dC); FP: 20 mM HEPES pH 7.5, 100 mM NaCl, 5 mM MgCl2, 2 mM DTT, 5% glycerol, 0.1 ug/ml poly(dI-dC), 10 nM DNA, 30 C, 20 min; settings: protein: recombinant; tags: pET28a His tag (Ni-NTA); chain copies: 2; label: 5'-FAM; blunt
T6 sequence: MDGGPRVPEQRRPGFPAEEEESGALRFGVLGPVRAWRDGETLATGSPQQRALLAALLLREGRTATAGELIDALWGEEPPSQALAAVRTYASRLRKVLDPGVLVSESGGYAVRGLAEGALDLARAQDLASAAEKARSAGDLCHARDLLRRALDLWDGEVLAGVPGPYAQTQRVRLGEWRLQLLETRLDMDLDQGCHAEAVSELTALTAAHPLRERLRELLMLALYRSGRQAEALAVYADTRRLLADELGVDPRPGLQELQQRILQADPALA

AfsR 4E = molecular target: T7, AfsR 4E (Streptomyces coelicolor M145, UniProt P25941 1-993, S391E;T337E;T506E;S953E); assay: fluorescence polarization; stronger than dephosphorylated AfsR; FP: 20 mM HEPES pH 7.5, 100 mM NaCl, 5 mM MgCl2, 2 mM DTT, 5% glycerol, 0.1 ug/ml poly(dI-dC), 10 nM DNA, 30 C, 20 min; settings: protein: recombinant; tags: pET28a His tag (Ni-NTA); chain copies: 2; label: 5'-FAM; blunt
T7 sequence: T5 sequence with T337E, S391E, T506E, S953E

[6] = molecular target: AfsR SARP domain;RNAP-sigmaHrdB holoenzyme;RbpA;CarD (Streptomyces coelicolor …, UniProt P25941;P60312;Q9L0L0;Q8CJT1;P18183;Q9KXS1;Q9RKY0;Q9L0Q9 …, |||); assay: cryo-EM; 3.35 A; open complex, 13-nt bubble; FP: 20 mM HEPES pH 7.5, 100 mM NaCl, 5 mM MgCl2, 2 mM DTT, 5% glycerol, 0.1 ug/ml poly(dI-dC), 10 nM DNA, 30 C, 20 min; settings: protein: recombinant;;recombinant;recombinant; tags: pET28a His tag (Ni-NTA);;pET28a His tag (Ni-NTA);pET28a His tag (Ni-NTA); chain copies: 2;2;1;1;1;1;1;1; 44 bp duplex, 6-nt mismatched bubble (-6 to -1), 15 bp duplex

stoichiometry N [1]: 2
binding result [2]: binds
binding result [3]: binds
binding result [4]: binds
binding result [5]: binds
B1: SARP domain of Streptomyces coelicolor AfsR (residues 1 to 270) (domain or fragment, S. coelicolor, UniProt P25941 1-270, looked up)
chain: T6 sequence
notes: AfsR, S. coelicolor M145, SARP domain, residues 1 to 270 (Met1-Ala270); Two protomers (upstream and downstream) stand on the afs box DNA in SARP-TIC; also called isolated SARP domain; wild-type SARP; source: E. coli BL21(DE3), purified (nickel-NTA, SEC Superdex 200)

B2: afs box (-45 to -14) (dsDNA)
DNA 1: CGGAGCGTTCAGCGTTCGTTTATCTCCCCCTG
DNA 2: CAGGGGGAGATAAACGAACGCTGAACGCTCCG
binding result (AfsR, dephosphorylated): binds
binding result (AfsR SARP domain): binds
binding result (AfsR 4E): binds

B3: afsS promoter scaffold -50 to +15, 6-nt bubble (dsDNA)
DNA 1: GTAGCCGGAGCGTTCAGCGTTCGTTTATCTCCCCCTGGCACTGTCATCTCCGTCAGACCGTCGCA
DNA 2: TGCGACGGTCTGACGCTCTACACAGTGCCAGGGGGAGATAAACGAACGCTGAACGCTCCGGCTAC
binding result [6]: binds
